Holding throughout (assay): AUC
Assay [1] addresses Enterococcus faecium LiaR DNA binding domain (residues 140-210) (Enterococcus faecium).
Assay [2] concerns the target Enterococcus faecium LiaR W73C, full length (Enterococcus faecium).
Assay [3] has the same target. The source holds these as a separate data set.
Assay [4] deals with Enterococcus faecium LiaR receiver domain (residues 1-139) (Enterococcus faecium).
Assay [5] deals with Enterococcus faecium LiaR receiver domain (residues 1-139) W73C (Enterococcus faecium).
Assay [6] shares this target. The source holds these as a separate data set.

Read-outs that look alike come from different tables or passages of the source.

The source of these data is paper PMC5085866.

In the case of “Enterococcus faecium LiaR DNA binding domain (residues 140-210) (domain or fragment)”, the Kd in assay [1] is 0.4 µM. On to “Enterococcus faecium LiaR W73C, full length (natural protein)”, for which the Kd in assay [2] was determined as 236 µM; in assay [3], 182 µM. In the case of “Enterococcus faecium LiaR receiver domain (residues 1-139) (domain or fragment)”, the Kd in assay [4] worked out at 676 µM. On to “Enterococcus faecium LiaR receiver domain (residues 1-139) W73C (domain or fragment)”, for which the Kd in assay [5] was found to be 0.8 µM; in assay [6] it was 94 µM.

What is called Kd is the constant that tells how readily two partners part at equilibrium. Low values mean tighter binding, high ones weaker binding.
